Source: paper PMC11533527, “A yeast two-hybrid system to obtain triple-helical ligands from combinatorial random peptide libraries” (The Journal of Biological Chemistry, 2024)
Positions count from the first letter of the chain named. In names and notes the source's numbering stands.

B1: synthetic triple-helical peptide pepfreq (peptide)
chain: YPPGPPGPPGPPGPRGRRGLHGLPGPPGPPGPPGPPG
HELM: PEPTIDE1{Y.P.[Hyp].G.P.[Hyp].G.P.[Hyp].G.P.[Hyp].G.P.R.G.R.R.G.L.H.G.L.[Hyp].G.P.[Hyp].G.P.[Hyp].G.P.[Hyp].G.P.[Hyp].G.[am]}$$$$V2.0; N-terminus assumed
SMILES: CC(C)C[C@H](NC(=O)CNC(=O)[C@H](CCCNC(=N)N)NC(=O)[C@H](CCCNC(=N)N)NC(=O)CNC(=O)[C@H](CCCNC(=N)N)NC(=O)[C@@H]1CCCN1C(=O)CNC(=O)[C@@H]1C[C@@H](O)CN1C(=O)[C@@H]1CCCN1C(=O)CNC(=O)[C@@H]1C[C@@H](O)CN1C(=O)[C@@H]1CCCN1C(=O)CNC(=O)[C@@H]1C[C@@H](O)CN1C(=O)[C@@H]1CCCN1C(=O)CNC(=O)[C@@H]1C[C@@H](O)CN1C(=O)[C@@H]1CCCN1C(=O)[C@@H](N)Cc1ccc(O)cc1)C(=O)N[C@@H](Cc1c[nH]cn1)C(=O)NCC(=O)N[C@@H](CC(C)C)C(=O)N1C[C@H](O)C[C@H]1C(=O)NCC(=O)N1CCC[C@H]1C(=O)N1C[C@H](O)C[C@H]1C(=O)NCC(=O)N1CCC[C@H]1C(=O)N1C[C@H](O)C[C@H]1C(=O)NCC(=O)N1CCC[C@H]1C(=O)N1C[C@H](O)C[C@H]1C(=O)NCC(=O)N1CCC[C@H]1C(=O)N1C[C@H](O)C[C@H]1C(=O)NCC(N)=O
notes: guest made of the residue most frequent at each position in the selection; Triple helix by CD; annealed before use; source: synthetic peptide (Fmoc solid phase, RP-HPLC purified)
B2: synthetic triple-helical peptide pep7 (peptide)
chain: B1 chain with R15K, L20F
HELM: PEPTIDE1{Y.P.[Hyp].G.P.[Hyp].G.P.[Hyp].G.P.[Hyp].G.P.K.G.R.R.G.F.H.G.L.[Hyp].G.P.[Hyp].G.P.[Hyp].G.P.[Hyp].G.P.[Hyp].G.[am]}$$$$V2.0; N-terminus assumed
SMILES: CC(C)C[C@H](NC(=O)CNC(=O)[C@H](Cc1c[nH]cn1)NC(=O)[C@H](Cc1ccccc1)NC(=O)CNC(=O)[C@H](CCCNC(=N)N)NC(=O)[C@H](CCCNC(=N)N)NC(=O)CNC(=O)[C@H](CCCCN)NC(=O)[C@@H]1CCCN1C(=O)CNC(=O)[C@@H]1C[C@@H](O)CN1C(=O)[C@@H]1CCCN1C(=O)CNC(=O)[C@@H]1C[C@@H](O)CN1C(=O)[C@@H]1CCCN1C(=O)CNC(=O)[C@@H]1C[C@@H](O)CN1C(=O)[C@@H]1CCCN1C(=O)CNC(=O)[C@@H]1C[C@@H](O)CN1C(=O)[C@@H]1CCCN1C(=O)[C@@H](N)Cc1ccc(O)cc1)C(=O)N1C[C@H](O)C[C@H]1C(=O)NCC(=O)N1CCC[C@H]1C(=O)N1C[C@H](O)C[C@H]1C(=O)NCC(=O)N1CCC[C@H]1C(=O)N1C[C@H](O)C[C@H]1C(=O)NCC(=O)N1CCC[C@H]1C(=O)N1C[C@H](O)C[C@H]1C(=O)NCC(=O)N1CCC[C@H]1C(=O)N1C[C@H](O)C[C@H]1C(=O)NCC(N)=O
notes: Triple helix by CD; annealed before use; source: synthetic peptide (Fmoc solid phase, RP-HPLC purified)
B3: synthetic triple-helical peptide pepα1(I)930-938: H-Tyr-(Pro-Hyp-Gly)4-Pro-Lys-Gly-His-Arg-Gly-Phe-Ser-Gly-Leu-Hyp-Gly-(Pro-Hyp-Gly)4-NH2 (peptide)
chain: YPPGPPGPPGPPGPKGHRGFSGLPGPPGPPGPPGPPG
modifications: 4-hydroxyproline (Hyp, written P in letters) at positions 3, 6, 9, 12, 24, 27, 30, 33, 36 of the chain (counted from the printed formula); C-terminal amide
notes: Tyr-(Pro-Hyp-Gly)4-Pro host; Hyp-Gly-(Pro-Hyp-Gly)4 host; Triple helix by CD; annealed before use; source: synthetic peptide (Fmoc solid phase, RP-HPLC purified)
B4: synthetic triple-helical peptide pep6 (peptide)
chain: B1 chain with R15N, L20F, H21M, L23M
HELM: PEPTIDE1{Y.P.[Hyp].G.P.[Hyp].G.P.[Hyp].G.P.[Hyp].G.P.N.G.R.R.G.F.M.G.M.[Hyp].G.P.[Hyp].G.P.[Hyp].G.P.[Hyp].G.P.[Hyp].G.[am]}$$$$V2.0; N-terminus assumed
SMILES: CSCC[C@H](NC(=O)[C@H](Cc1ccccc1)NC(=O)CNC(=O)[C@H](CCCNC(=N)N)NC(=O)[C@H](CCCNC(=N)N)NC(=O)CNC(=O)[C@H](CC(N)=O)NC(=O)[C@@H]1CCCN1C(=O)CNC(=O)[C@@H]1C[C@@H](O)CN1C(=O)[C@@H]1CCCN1C(=O)CNC(=O)[C@@H]1C[C@@H](O)CN1C(=O)[C@@H]1CCCN1C(=O)CNC(=O)[C@@H]1C[C@@H](O)CN1C(=O)[C@@H]1CCCN1C(=O)CNC(=O)[C@@H]1C[C@@H](O)CN1C(=O)[C@@H]1CCCN1C(=O)[C@@H](N)Cc1ccc(O)cc1)C(=O)NCC(=O)N[C@@H](CCSC)C(=O)N1C[C@H](O)C[C@H]1C(=O)NCC(=O)N1CCC[C@H]1C(=O)N1C[C@H](O)C[C@H]1C(=O)NCC(=O)N1CCC[C@H]1C(=O)N1C[C@H](O)C[C@H]1C(=O)NCC(=O)N1CCC[C@H]1C(=O)N1C[C@H](O)C[C@H]1C(=O)NCC(=O)N1CCC[C@H]1C(=O)N1C[C@H](O)C[C@H]1C(=O)NCC(N)=O
notes: as for B2
B5: synthetic triple-helical peptide pep5 (peptide)
chain: B1 chain with R17P, H21T, L23F
HELM: PEPTIDE1{Y.P.[Hyp].G.P.[Hyp].G.P.[Hyp].G.P.[Hyp].G.P.R.G.P.R.G.L.T.G.F.[Hyp].G.P.[Hyp].G.P.[Hyp].G.P.[Hyp].G.P.[Hyp].G.[am]}$$$$V2.0; N-terminus assumed
SMILES: CC(C)C[C@H](NC(=O)CNC(=O)[C@H](CCCNC(=N)N)NC(=O)[C@@H]1CCCN1C(=O)CNC(=O)[C@H](CCCNC(=N)N)NC(=O)[C@@H]1CCCN1C(=O)CNC(=O)[C@@H]1C[C@@H](O)CN1C(=O)[C@@H]1CCCN1C(=O)CNC(=O)[C@@H]1C[C@@H](O)CN1C(=O)[C@@H]1CCCN1C(=O)CNC(=O)[C@@H]1C[C@@H](O)CN1C(=O)[C@@H]1CCCN1C(=O)CNC(=O)[C@@H]1C[C@@H](O)CN1C(=O)[C@@H]1CCCN1C(=O)[C@@H](N)Cc1ccc(O)cc1)C(=O)N[C@H](C(=O)NCC(=O)N[C@@H](Cc1ccccc1)C(=O)N1C[C@H](O)C[C@H]1C(=O)NCC(=O)N1CCC[C@H]1C(=O)N1C[C@H](O)C[C@H]1C(=O)NCC(=O)N1CCC[C@H]1C(=O)N1C[C@H](O)C[C@H]1C(=O)NCC(=O)N1CCC[C@H]1C(=O)N1C[C@H](O)C[C@H]1C(=O)NCC(=O)N1CCC[C@H]1C(=O)N1C[C@H](O)C[C@H]1C(=O)NCC(N)=O)[C@@H](C)O
notes: as for B2
B6: synthetic triple-helical peptide pep3 (peptide)
chain: B1 chain with R17H, L20F, H21L
HELM: PEPTIDE1{Y.P.[Hyp].G.P.[Hyp].G.P.[Hyp].G.P.[Hyp].G.P.R.G.H.R.G.F.L.G.L.[Hyp].G.P.[Hyp].G.P.[Hyp].G.P.[Hyp].G.P.[Hyp].G.[am]}$$$$V2.0; N-terminus assumed
SMILES: CC(C)C[C@H](NC(=O)[C@H](Cc1ccccc1)NC(=O)CNC(=O)[C@H](CCCNC(=N)N)NC(=O)[C@H](Cc1c[nH]cn1)NC(=O)CNC(=O)[C@H](CCCNC(=N)N)NC(=O)[C@@H]1CCCN1C(=O)CNC(=O)[C@@H]1C[C@@H](O)CN1C(=O)[C@@H]1CCCN1C(=O)CNC(=O)[C@@H]1C[C@@H](O)CN1C(=O)[C@@H]1CCCN1C(=O)CNC(=O)[C@@H]1C[C@@H](O)CN1C(=O)[C@@H]1CCCN1C(=O)CNC(=O)[C@@H]1C[C@@H](O)CN1C(=O)[C@@H]1CCCN1C(=O)[C@@H](N)Cc1ccc(O)cc1)C(=O)NCC(=O)N[C@@H](CC(C)C)C(=O)N1C[C@H](O)C[C@H]1C(=O)NCC(=O)N1CCC[C@H]1C(=O)N1C[C@H](O)C[C@H]1C(=O)NCC(=O)N1CCC[C@H]1C(=O)N1C[C@H](O)C[C@H]1C(=O)NCC(=O)N1CCC[C@H]1C(=O)N1C[C@H](O)C[C@H]1C(=O)NCC(=O)N1CCC[C@H]1C(=O)N1C[C@H](O)C[C@H]1C(=O)NCC(N)=O
notes: as for B2
B7: synthetic triple-helical peptide pep11 (peptide)
chain: B1 chain with R15V, H21S
HELM: PEPTIDE1{Y.P.[Hyp].G.P.[Hyp].G.P.[Hyp].G.P.[Hyp].G.P.V.G.R.R.G.L.S.G.L.[Hyp].G.P.[Hyp].G.P.[Hyp].G.P.[Hyp].G.P.[Hyp].G.[am]}$$$$V2.0; N-terminus assumed
SMILES: CC(C)C[C@H](NC(=O)CNC(=O)[C@H](CCCNC(=N)N)NC(=O)[C@H](CCCNC(=N)N)NC(=O)CNC(=O)[C@@H](NC(=O)[C@@H]1CCCN1C(=O)CNC(=O)[C@@H]1C[C@@H](O)CN1C(=O)[C@@H]1CCCN1C(=O)CNC(=O)[C@@H]1C[C@@H](O)CN1C(=O)[C@@H]1CCCN1C(=O)CNC(=O)[C@@H]1C[C@@H](O)CN1C(=O)[C@@H]1CCCN1C(=O)CNC(=O)[C@@H]1C[C@@H](O)CN1C(=O)[C@@H]1CCCN1C(=O)[C@@H](N)Cc1ccc(O)cc1)C(C)C)C(=O)N[C@@H](CO)C(=O)NCC(=O)N[C@@H](CC(C)C)C(=O)N1C[C@H](O)C[C@H]1C(=O)NCC(=O)N1CCC[C@H]1C(=O)N1C[C@H](O)C[C@H]1C(=O)NCC(=O)N1CCC[C@H]1C(=O)N1C[C@H](O)C[C@H]1C(=O)NCC(=O)N1CCC[C@H]1C(=O)N1C[C@H](O)C[C@H]1C(=O)NCC(=O)N1CCC[C@H]1C(=O)N1C[C@H](O)C[C@H]1C(=O)NCC(N)=O
notes: as for B2
B8: synthetic triple-helical peptide pep10 (peptide)
chain: B1 chain with R17P, L20F, H21T, L23F
HELM: PEPTIDE1{Y.P.[Hyp].G.P.[Hyp].G.P.[Hyp].G.P.[Hyp].G.P.R.G.P.R.G.F.T.G.F.[Hyp].G.P.[Hyp].G.P.[Hyp].G.P.[Hyp].G.P.[Hyp].G.[am]}$$$$V2.0; N-terminus assumed
SMILES: C[C@@H](O)[C@H](NC(=O)[C@H](Cc1ccccc1)NC(=O)CNC(=O)[C@H](CCCNC(=N)N)NC(=O)[C@@H]1CCCN1C(=O)CNC(=O)[C@H](CCCNC(=N)N)NC(=O)[C@@H]1CCCN1C(=O)CNC(=O)[C@@H]1C[C@@H](O)CN1C(=O)[C@@H]1CCCN1C(=O)CNC(=O)[C@@H]1C[C@@H](O)CN1C(=O)[C@@H]1CCCN1C(=O)CNC(=O)[C@@H]1C[C@@H](O)CN1C(=O)[C@@H]1CCCN1C(=O)CNC(=O)[C@@H]1C[C@@H](O)CN1C(=O)[C@@H]1CCCN1C(=O)[C@@H](N)Cc1ccc(O)cc1)C(=O)NCC(=O)N[C@@H](Cc1ccccc1)C(=O)N1C[C@H](O)C[C@H]1C(=O)NCC(=O)N1CCC[C@H]1C(=O)N1C[C@H](O)C[C@H]1C(=O)NCC(=O)N1CCC[C@H]1C(=O)N1C[C@H](O)C[C@H]1C(=O)NCC(=O)N1CCC[C@H]1C(=O)N1C[C@H](O)C[C@H]1C(=O)NCC(=O)N1CCC[C@H]1C(=O)N1C[C@H](O)C[C@H]1C(=O)NCC(N)=O
notes: as for B2

Target: the molecule itself
Assay: circular dichroism with thermal melting; peptides in PBS, heated at 95 °C, annealed at 4 °C overnight; [θ]225 followed from 4 to 85 °C; chains of one peptide forming a triple helix

Row | Protein | binding result
1 | B1 | binds
2 | B2 | binds
3 | B3 | binds
4 | B4 | binds
5 | B5 | binds
6 | B6 | binds
7 | B7 | binds
8 | B8 | binds
